Laboratory results published in article PMC6805999, “Molecular Mechanism of SR Protein Kinase 1 Inhibition by the Herpes Virus Protein ICP27” (mBio, 2019).
Values joined by “and” are separate entries in the source; they are usually repeats but may differ in a detail not shown here. Equal entries are not always repeated.

B1: WT ICP27: full-length wild-type HSV-1 protein ICP27 expressed from plasmid (protein)
chain: MATDIDMLIDLGLDLSDSDLDEDPPEPAESRRDDLESDSSGECSSSDEDMEDPHGEDGPEPILDAARPAVRPSRPEDPGVPSTQTPRPTERQGPNDPQPAPHSVWSRLGARRPSCSPEQHGGKVARLQPPPTKAQPARGGRRGRRRGRGRGGPGAADGLSDPRRRAPRTNRNPGGPRPGAGWTDGPGAPHGEAWRGSEQPDPPGGQRTRGVRQAPPPLMTLAIAPPPADPRAPAPERKAPAADTIDATTRLVLRSISERAAVDRISESFGRSAQVMHDPFGGQPFPAANSPWAPVLAGQGGPFDAETRRVSWETLVAHGPSLYRTFAGNPRAASTAKAMRDCVLRQENFIEALASADETLAWCKMCIHHNLPLRPQDPIIGTTAAVLDNLATRLRPFLQCYLKARGLCGLDELCSRRRLADIKDIASFVFVILARLANRVERGVAEIDYATLGVGVGEKMHFYLPGACMAGLIEILDTHRQECSSRVCELTASHIVAPPYVHGKYFYCNSLF

Legend:
SRPK1 = settings: determined using in vitro phosphorylation assays; read-out: dissociation constant (Kd) of SRSF1 RS domain binding to SRPK1; cited from earlier work
GFP-SRPK1 [1] = test: Immunofluorescence: cellular localization of GFP-SRPK1; assay type: cell-based, rabbit skin fibroblasts (RSF); settings: RSF cells cotransfected with GFP-SRPK1 and ICP27 plasmid, infected with 27-LacZ, fixed 6 h later; representative of ∼80% of cells
Protocol: HeLa cells cotransfected with GFP-SRPK1 and WT ICP27 or RGG box mutants were infected for 8 h with 27-LacZ. Immunoprecipitation was performed using anti-GFP antibody. Western blots were probed with anti-GFP or anti-ICP27 antibody and anti-β-actin as a loading control. (B) HeLa cells transfected with WT and ICP27 RGG box mutants were infected with 27-LacZ for 8 h. Immunoprecipitation was performed with anti-ICP27 antibody. Western blots were probed with anti-SRPK1 or anti-ICP27 antibody as indicated and anti-β-actin as a loading control. (C) RSF cells were transfected with GFP-SRPK1 and 16 h later were mock infected, infected with WT HSV-1 or 27-LacZ, or were cotransfected with GFP-SRPK1 and WT ICP27 or ICP27 RGG box mutants and infected 16 later with 27-LacZ. Cells were fixed 6 h later and immunofluorescent staining was performed with anti-ICP27. ICP4 antibody was used to stain the 27-LacZ sample to mark the nucleus. GFP fluorescence was visualized directly. The panels shown are representative of ∼80% of cells visualized. (D) HeLa cells were transfected with GFP-SRPK1 and WT ICP27 or RGG box mutants and were infected with 27-LacZ 16 h after transfection for 8 h. […]
In immunofluorescence experiments, rabbit skin fibroblasts (RSF) were transfected and/or infected as indicated in the legend to Fig. 5. […] GFP fluorescence was viewed directly. […]

endogenous SRPK1 = target: T1, endogenous SRPK1 (Homo sapiens, UniProt Q96SB4); test: Coimmunoprecipitation of endogenous SRPK1 with ICP27 (anti-ICP27 IP, Western blot anti-SRPK1); assay type: cell-based; settings: HeLa cells transfected with ICP27 plasmid, infected with 27-LacZ for 8 h
T1 construct: endogenous in cells; host or cells: HeLa cells
Text: (§1) ICP27 mutants were constructed to target sites within the RGG box that contact SRPK1 in the crystal structure. Arginines at positions 142, 144, 146, and 148 were changed to glycine (G) as single (R142G, R146G, or R148G), double (R142G R146G), and quadruple (R142G R144G R146G R148G) substitutions. The ICP27 mutant plasmids were cotransfected with a plasmid expressing green fluorescent protein (GFP)-SRPK1 and subsequently infected with ICP27 null mutant virus 27-LacZ to recapitulate the conditions of infection. At 8 h after infection, lysates were immunoprecipitated with anti-GFP antibody, and samples were analyzed by Western blotting and probed with antibody to ICP27 (Fig. 5A). […] ICP27 interaction with endogenous SRPK1 was also analyzed. Cells were transfected with WT and ICP27 mutant plasmids and infected with 27-LacZ as described above. Immunoprecipitation was performed with anti-ICP27 antibody and the blots were probed with antibody to SRPK1 (Fig. 5B). SRPK1 was only coimmunoprecipitated with WT ICP27 and was not detected with any of the mutants.
(§2) HeLa cells cotransfected with GFP-SRPK1 and WT ICP27 or RGG box mutants were infected for 8 h with 27-LacZ. Immunoprecipitation was performed using anti-GFP antibody. Western blots were probed with anti-GFP or anti-ICP27 antibody and anti-β-actin as a loading control. […] GFP fluorescence was visualized directly. […]

[2] = tested on: SRPK1 phosphorylation of SR proteins; test: In vivo SR protein phosphorylation analysis (Western blot, antiphosphoepitope SR antibody); assay type: cell-based; settings: HeLa cells cotransfected with GFP-SRPK1 and ICP27 plasmid, infected with 27-LacZ for 8 h
Protocol: HeLa cells cotransfected with GFP-SRPK1 and WT ICP27 or RGG box mutants were infected for 8 h with 27-LacZ. Immunoprecipitation was performed using anti-GFP antibody. Western blots were probed with anti-GFP or anti-ICP27 antibody and anti-β-actin as a loading control. (B) HeLa cells transfected with WT and ICP27 RGG box mutants were infected with 27-LacZ for 8 h. Immunoprecipitation was performed with anti-ICP27 antibody. Western blots were probed with anti-SRPK1 or anti-ICP27 antibody as indicated and anti-β-actin as a loading control. (C) RSF cells were transfected with GFP-SRPK1 and 16 h later were mock infected, infected with WT HSV-1 or 27-LacZ, or were cotransfected with GFP-SRPK1 and WT ICP27 or ICP27 RGG box mutants and infected 16 later with 27-LacZ. Cells were fixed 6 h later and immunofluorescent staining was performed with anti-ICP27. ICP4 antibody was used to stain the 27-LacZ sample to mark the nucleus. GFP fluorescence was visualized directly. The panels shown are representative of ∼80% of cells visualized. (D) HeLa cells were transfected with GFP-SRPK1 and WT ICP27 or RGG box mutants and were infected with 27-LacZ 16 h after transfection for 8 h. Portions of cell lysates were fractionated by SDS-PAGE, and Western blots were probed with antiphosphoepitope SR antibody, anti-SF2 (SRSF1), anti-ICP27 antibody, and anti-lamin B1 antibody as a loading control. […]

GFP-SRPK1 [3] = target: T2, GFP-SRPK1 (Homo sapiens, UniProt Q96SB4); test: Coimmunoprecipitation of ICP27 with GFP-SRPK1 (anti-GFP IP, Western blot anti-ICP27); assay type: cell-based; settings: HeLa cells cotransfected with GFP-SRPK1 and ICP27 plasmid, infected with 27-LacZ for 8 h
T2 construct: expressed in transfected cells; host or cells: HeLa cells, infected with HSV-1 27-LacZ
Text: as §1, §2

T2 sequence (Q96SB4 whole entry): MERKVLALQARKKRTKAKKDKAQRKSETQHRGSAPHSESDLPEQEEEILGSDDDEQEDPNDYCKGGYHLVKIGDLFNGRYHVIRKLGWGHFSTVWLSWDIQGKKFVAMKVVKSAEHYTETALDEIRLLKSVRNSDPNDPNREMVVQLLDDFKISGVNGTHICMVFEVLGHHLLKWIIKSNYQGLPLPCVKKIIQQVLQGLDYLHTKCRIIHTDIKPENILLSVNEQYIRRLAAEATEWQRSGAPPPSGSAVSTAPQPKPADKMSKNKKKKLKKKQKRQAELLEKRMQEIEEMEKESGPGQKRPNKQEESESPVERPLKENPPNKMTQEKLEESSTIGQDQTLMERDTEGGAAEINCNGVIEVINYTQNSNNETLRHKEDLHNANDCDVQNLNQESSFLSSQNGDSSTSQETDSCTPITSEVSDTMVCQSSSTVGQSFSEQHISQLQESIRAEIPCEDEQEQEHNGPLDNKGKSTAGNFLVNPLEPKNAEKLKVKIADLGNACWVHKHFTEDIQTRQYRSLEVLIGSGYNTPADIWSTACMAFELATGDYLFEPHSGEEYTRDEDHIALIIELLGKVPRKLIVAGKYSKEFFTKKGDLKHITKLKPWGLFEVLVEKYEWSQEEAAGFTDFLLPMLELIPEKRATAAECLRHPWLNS
T1 sequence (Q96SB4 whole entry): as above

Molecule	Kd (SRPK1)	cellular localization of SRPK1 (GFP-SRPK1 [1])	coimmunoprecipitation of endogenous SRPK1 with ICP27 (endogenous SRPK1)	level of phosphorylation for SRp40 (SRSF5) reduced [2]	phosphorylation of SRp30 (SRSF1) reduced [2]	coimmunoprecipitation of ICP27 with GFP-SRPK1 (GFP-SRPK1 [3])
SRSF1: prototype SR protein, native cellular substrate of SRPK1	~50 nM and 50 nM					
B1		prominently nuclear	coimmunoprecipitated	reduced	reduced	efficiently coimmunoprecipitated
